Assay results published in patent US20130115208A1.
Substitutions are numbered along the chain they refer to. In names and notes the source's numbering stands. One block for each molecule: values may come before it.

Biological target: human-FcRn (neonatal Fc receptor) (human) (UniProt P55899)
Test: SPR (ProteOn XPR36), IgG amine-coupled on reaction spots, human FcRn injected in kinetic titration, pH 6.0

Kd: 983 nM
Molecule: hIgG2ΔA (control) (antibody)

Kd: 600 nM
B1: hIgG2.EEE.L368E.Ab1.Ab1/hIgG2.RRR.K409R.Ab2.Ab2 (bispecific antibody, part only; not given: Variable regions and light chains, not shown: another chain or arm of the molecule)
constant 1: ASTKGPSVFPLAPCSRSTSESTAALGCLVKDYFPEPVTVSWNSGALTSGVHTFPAVLQSSGLYSLSSVVTVPSSNFGTQTYTCNVDHKPSNTKVDKTVERKCEVECPECPAPPVAGPSVFLFPPKPKDTLMISRTPEVTCVVVDVSHEDPEVQFNWYVDGVEVHNAKTKPREEQFNSTFRVVSVLTVVHQDWLNGKEYKCKVSNKGLPSSIEKTISKTKGQPREPQVYTLPPSREEMTKNQVSLTCEVKGFYPSDIAVEWESNGQPENNYKTTPPMLDSDGSFFLYSKLTVDKSRWQQGNVFSCSVMHEALHNHYTQKSLSLSPGK
constant 2: B1 constant 1 with E103R, E105R, E108R, E247L, K288R
